Series [1] deals with Acetylated acetyl-CoA synthetase (Acs^Ac), Acs of S. enterica isolated from a cobB- strain (S. enterica) (UniProt Q8ZKF6). The series can be described thus: cell-based or functional assay.
Series [2] concerns the target T1, Acetylated acetyl-CoA synthetase (Acs^Ac), Acs of S. enterica isolated from a cobB- strain.
T1 chain: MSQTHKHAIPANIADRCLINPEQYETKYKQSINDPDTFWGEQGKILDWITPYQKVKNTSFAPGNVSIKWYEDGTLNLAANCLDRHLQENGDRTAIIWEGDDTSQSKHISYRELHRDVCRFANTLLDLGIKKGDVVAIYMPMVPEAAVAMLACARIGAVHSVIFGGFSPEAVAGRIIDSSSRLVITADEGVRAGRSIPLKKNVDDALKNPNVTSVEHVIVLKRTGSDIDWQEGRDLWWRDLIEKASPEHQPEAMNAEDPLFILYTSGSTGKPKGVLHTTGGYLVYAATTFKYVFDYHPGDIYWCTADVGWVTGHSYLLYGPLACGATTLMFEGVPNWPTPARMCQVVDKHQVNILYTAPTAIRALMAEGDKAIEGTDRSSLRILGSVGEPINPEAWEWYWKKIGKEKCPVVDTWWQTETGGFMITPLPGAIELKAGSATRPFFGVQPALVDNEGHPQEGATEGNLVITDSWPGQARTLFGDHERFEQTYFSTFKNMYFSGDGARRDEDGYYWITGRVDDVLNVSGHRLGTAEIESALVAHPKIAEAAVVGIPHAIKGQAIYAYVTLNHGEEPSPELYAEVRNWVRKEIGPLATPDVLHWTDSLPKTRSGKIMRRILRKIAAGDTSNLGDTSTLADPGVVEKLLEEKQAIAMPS

The mark [3] stands for this setting: scale: pmoles of acetyl-CoA formed min^-1 mg of protein^-1.

The source of these data is patent US7531337.

Regarding “CobB sirtuin of S. enterica (purified, homogeneous) (from UniProt P0A2F2 1-273) (enzyme)”, in series [1], the Acs Sp. Act. (purified Acs from CobB- host, plus BSA, CobB, NAD+) (nmoles of acetyl-CoA formed min^-1 mg^-1) turned out to be 483 and the Acs Sp. Act. (purified Acs from CobB- host, plus CobB, NAD+) (nmoles of acetyl-CoA formed min^-1 mg^-1) worked out at 480. Moreover, in series [1] (setting [3]), the Acs Specific Activity (crude cell-free extract of Acs+ cobB- strain, plus 10 µg CobB + NAD+) amounted to 490 and the Acs Specific Activity (crude cell-free extract of Acs+ cobB- strain, plus 10 µg CobB) is 42.

B1: CobB sirtuin of S. enterica (purified, homogeneous) (protein)
chain: MQSRRFHRLSRFRKNKRLLRERLRQRIFFRDRVVPEMMENPRVLVLTGAGISAESGIRTFRAADGLWEEHRVEDVATPEGFARNPGLVQTFYNARRQQLQQPEIQPNAAHLALAKLEEALGDRFLLVTQNIDNLHERAGNRNIIHMHGELLKVRCSQSGQILEWNGDVMPEDKCHCCQFPAPLRPHVVWFGEMPLGMDEIYMALSMADIFIAIGTSGHVYPAAGFVHEAKLHGAHTVELNLEPSQVGSEFEEKHYGPASQVVPEFVDKFLKGL
For the molecule B1, the “reactivity of Acs with anti-acetyl-lysine antibody in a time-course immunoblot” value in series [2] is “The decreased reactivity of Acs with the antibody was dependent on the presence of NAD^+ and CobB in a time-course experiment”.
